The text below walks through data of a protein production outcome set (Wang et al. 2014).

The nature of the data set: label from the status in PepcDB records.
As to “MAKAISAPITFAIILVIGILLLIPFLTYVTYLSQSNQISQAQFNNYIYLKNLEQQRAVSGRPGVYYNGSSLFILYSNGTFVPNASIVVVGILYLNNLGVWQNITSLKYPIILNRTGSVNLPSNVAGKPIILVTSLGNIFFLQPGSSIGPYSNSIGKGGVTIISQIYTSSQIYSTSINITTNINGKFSNYTTPITFPNQTGTFQVKAREYIYYINSKTGKVITGVFSNWQILGSATVNSTTTQGITVTLQGKPVILIANYSQLVQSVNLSIKTNANFSIVVNINGVNYTVNNHALSATVPAGYVNFTVYTLQGNDTSSMSSGIIKHYKFNTINYTGNTYVTNSQLLFLPPNSLPYVQINYVNDYNYYKVFLYDYYDSPPPPGGGLVVILNGTEYNYNNTYGYWIIGGNYSFVPTGIFNGSMSYEAKEVTIAGNNGILNYYFPDIPSYIIINQPMTITVYYDYVIKWVPI”, the protein production entry was “failed”.

Regarding “MAKASSPTDTGKQKVRSAEVGTDILKALAELSPSTSLSRLAEHVQMPASKVHRYLQALIASGFAEQDAATNHYGLGREALRVGLAALGSIDVLKVAAMPLSQLRDELNESCFIAVWGNQGATVVSIEPAVRAVTVVTQIGSVLPLLSSSTGLVFAAYLPERETQELRDRELAALQQTASDYHTLLAGIREKGLHHVHGLLMPGVDALSAPVFNAMGQIAAVMTVVGPTSIFHADEHGPAAQSLLTAARTVSWRMGYAGNPHCASTSSVSSSTSQSSS”, the protein production result is listed as “failed”.

Regarding “MAKAVRIGAEGYKLKLDGAVQEIDGRSVVLVDVDSITPLMFGGSMKEKAKLLDAKFLRKYYEENKDFFFLSTREEKKMFVTLQLAREYAELVDDQFLRGFFEKALESAQKAF”, the protein production entry was “not failed”.

As for “MAKHAILVIDMLNDFVGEKAPLRCPGGETIIPDLQKIFEWVRGREGDDIHLVHIQEAHRKNDADFRVRPLHAVKGTWGSDFIPELYPQEDEYIVQKRRHSGFAHTDLDLYLKEEGIDTVVLTGVWTNVCVRSTATDALANAYKVITLSDGTASKTEEMHEYGLNDLSIFTKVMTVDQYIQAWENDEDPWVGGGDAQNKVK”, the protein production entry is on record as “not failed”.

Consider “MAKHVIIGAGSIGTNVARLLAEGGESVRIVTRSGSGPEHPLVDRVAADASDPSRLTELSRGAGVIYHCANPPSYTVWERLLPPLQTAAITAAKANDAVLALTGSLYAYGPQPGGRMNEHTPMAATGHKGRLRRRMWEQALAGGIRTVEVRGSDYIGKDANGIYSLLIKSALQKGKAAWITGHLDMPHTFTFNGDMAQALITLASEERAWGRPWHVPSAPAVTIRELARRYAVAAGRPPIKLIQIPRSVTRTAGLIVPIAREMAEMDYQWYAPFHMDATETTETFGLTATDLDTAVRNEVG”, for which the protein production entry is “failed”.

On to “MAKILEGPAMKLFNKWGIPVPNYVVIMDPKRLAQLGEANKWLRESKLVVKAHEAIGGRFKLGLVKIGLNLDEAIQASREMLGAKVGTAEVRQVIVAEMLDHDAEFYVSIIGNRDGAELLISKYGGVDIEDNWDSVRRIQIPLDEHPTIEQLTALAKEAGFEGEIAERVGKICSRLVLCFDNEDAQSIEINPLVIRKSDMRFAALDAVMNVDWDARFRHADWDFKPVSEIGRPFTEAEQQIMDIDSRIKGSVKFVEVPGGEIALLTAGGGASVFYADAVVARGGTIANYAEYSGDPPDWAVEALTETICRLPNIKHIIVGGAIANFTDVKATFSGIINGLRESKSKGYLEGVKIWVRRGGPNEAQGLAAIRKLQEEGFDIHVYDRSMPMTDIVDLALKS”, for which the protein production entry is “not failed”.

On to “MAKKRGKPEIDWTDDDKEIIWVSKSEIKRDSEHLKKLGAELIELTPQNLEKIPLDEDLKYAIRQAQSFKLEARRRQIQFIGKLLRNRDSAPIQDALDKVKNRHNQQQALLHKLELIRDQLINMGDASLNQLLSEYPQLDRQHLRNLIRMAQKEKQINKPAKNYHEILQYLKSELIV”, for which the protein production entry was “not failed”.

For the sequence “MAKKRITLPQNFDELITAGDVEALKAVYDKCELTAHNGRYSLNTALHYGGVPDELVIWLVEQGLDVNTLDYYGRTPLYKHATLGRDTVKLLYELGGDIQKPDTYGSTPLHTAAGFFRPKIVSFLIEKDADVNAKNDMGRTPLAEALATCRNSNVVQAAEIAEMLIKAGAEVVPEMAERVEIIGKDFEFHRENFNKDSLAETEAGLEKLYALFDVKPAPKRKIHDGVSPIIVKTGSWKEQYDELWEMLIPSSGAAKTVQGEVIRITGRVQDELYRNGGVNWDKDYRNMLNSLPNHFASGTPLSEEELKETKELISNIRANGEDEEVITERLRELSVLWVLLNPTPILLGKTNYNR”, the protein production result is “failed”.

As for “MAKLRHSRFQARKWSTLMLVLFMLFMLTIVLLMLLAFGVFSLPINNDESSPIDLSYFRRAATERSEGLGKRGDQWTEVLSWEPRAFVYHNFLSKEECEYLISLAKPHMVKSTVVDSETGKSKDSRVRTSSGTFLRRGRDKIIKTIEKRIADYTFIPADHGEGLQVLHYEAGQKYEPHYDYFVDEFNTKNGGQRMATMLMYLSDVEEGGETVFPAANMNFSSVPWYNELSECGKKGLSVKPRMGDALLFWSMRPDATLDPTSLHGGCPVIRGNKWSSTKWMHVGEYKI”, the protein production entry is given as “failed”.

Take “MAKLSRKERHRLLLQKIKENPFITDEELAEEFGCSVQTIRLDRAILDIKEVRERIKEMAKESLGKLKTISPRDVVGEIIDIELGSYAIATFEPELWMTFSNSQMVKGQHIYAFAESIAMSVIDAKAALIGIANIKYKTPVFANDRLVARAELKKKRNNKYIVWVFIKRNNEEVFRGKFILVAIDDENKETGQTGV”: the protein production result is “failed”.

In the case of “MAKNKLLRMDNVSIVVESLDNAISFFEEIGLNLEGRANVEGEWAGRVTGLGSQCVEIAMMVTPDGHSRIELSRFLTPPTIADHRTAPVNALGYLRVMFTVEDIDEMVSRLTKHGAELVGEVVQYENSYRLCYIRGVEGILIGLAEELGNK”, the protein production entry is given as “not failed”.

With “MAKNQSGSIFNTKVTIKYDKEKIIKLSSEMFSEDLCIQCGRCCMIHVYTTDEKIDPEIVYCNHLDVETKRCKIYKNRFNKEKECLSMLEAILTSALPKDCPYVKNYPSYEEPWFYGLLRGKNLK”, the protein production entry is “failed”.

For “MAKPVYHAITKYSPKKPVIVFVPSRKQTRLTAIDILTTCAADIQRQRFLHCTEKDLIPYLEKLSDSTLKETLLNGVGYLHEGLSPMERRLVEQLFSSGAIQVVVASRSLCWGMNVAAHLVIIMDTQYYNGKIHAYVDYPIYDVLQMVGHANRPLQDDEGRCVIMCQGSKKDFFKKFLYEPLPVESHLDHCMHDHFNAEIVTKTIENKQDAVDYLTWTFLYRRMTQNPNYYNLQGISHRHLSDHLSELVEQTLSDLEQSKCISIEDEMDVAPLNLGMIAAYYYINYTTIELFSMSLNAKTKVRGLIEIISNAAEYENIPIRHHEDNLLRQLAQKVPHKLNNPKFNDPHVKTNLLLQAHLSRMQLSAELQSDTEEILSKAIRLIQACVDVLSSNGWLSPALAAMELAQMVTQAMWSKDSYLKQLPHFTSEHIKRCTDKGVESVFDIMEMEDEERNALLQLTDSQIADVARFCNRYPNIELSYEVVDKDSIRSGGPVVVLVQLEREEEVTGPVIAPLFPQKREEGWWVVIGDAKSNSLISIKRLTLQQKAKVKLDFVAPATGAHNYTLYFMSDAYMGCDQEYKFSVDVKEAETDSDSD”, the protein production result is reported as “failed”.

With “MAKSLTFSTFSPNNTLKKNVIPIVLLHGWGLNSGVWQPLLELFHRNDESIYQLITIDLPGFGINSAVDIKPYSLANICHHIEQVIDQPAIYLGWSLGGLIATEMSLKYPEKVLASITVASSPYFVEQPTDNWPGIKENVLESFHKQLAQDTAKTISGFLKIQAMGSPHIRQDLKLITQLVMAHTLPSQQTLADSLALLSNSDLRLHLSKIKQPLLRLYGHNDSLVPKEVMEKISYLAPNSDQHLFADASHAPFISHLDDFYQVLVVWLDSHFNLEHHHHHH”, the protein production entry is recorded as “failed”.

“MAKSRLLLSELLDQLSFALCIVRNDYVIVKVNEYFESRVIFDGETMQGKNILELFPESADYLKRKIDTALVIESSSFSSWEQKPHLLPFKSSRPVSGEEEQMYQNLEVIPIHSED”: the protein production result was “failed”.

In the case of “MAKTLFWLCLLLPFYAWVGYPLLLALLSLFVRPRPVQEGAPLSVSVIIAAHNEGPHIEHKLRTLLQQDYPATDLQIILASDGSSDDTVATALGVRDSRIVVLDLPRVGKAGALNAAVELARNDILVFTDADNQWSHDTLGKLLAPLSDPQVGACGGHMIIPDPGHNLSLGDSLYRHYEAWLRQAENRTGCMVSADGALLALRRELFQRIPAEVNDDFFISTCAPVAGKRIVYVEEAQVLDQGVDEAGKQYRRRLRVTVGGLQSLAQRRELMNPLRHGAYAIALISHKLIRRLAPVLLLPLLVSSLLLWNAGAFYSLALLAQVLGYGAGIMGLLDRRGRLPKVFRLAGFVLVTMAGMSMGLWQFLRGQRYALWNPQQNR”, the protein production entry is “failed”.

With “MAKTSRPSKAKQQALVHQLIGKIDAQPEDYHAYYELVVLLTAGQDFEQAEALAMKALGKFDHQQPAADYLRYALGNVYYQAQTYDKALPYYQQITDDQLKQDAYLMSAQALMAQHDYQHALVWAITAQEARPQQLDANLLVADILLALGNNQQASDYYQRAYKIDSQSGRAAFNLGLTAMVLGKPYATWFERAQKLDSQYFKSHQQQLTDIEKMLAAQADNQNH”, the protein production result is listed as “failed”.

Turning to “MAKVTISSVIDAPVEKVWARIRDFNGLPCWHPRMVESHIEDGKNASTIGCVRNFELITGARLREKLLDFSDENFLVSYSILETPQPLTNHKATLQLRRVTDGDRTYAEWTASFDAAPEEADKIAAGMGANVFQGGFNALKSHFSGQD”, the protein production result is “failed”.

Consider “MAKWRLATATLRRQLQSSSPTISTFKNPTKALSAAAHQSTRSYSTTQTDDSRGKWLTLPPFSPTIDGTAVGKDLLSDGDSVKSSTDNSKTTALRWILRCRPDLPRTLVQKLFRLRQVRREMSMSVDGDELQRSQLKRVAAKESLNVGDRIYLPLSVDNDTPQTPPAKKESFQCSDEERKFVCSLVLYKDPAIIVLNKPHGLAVQGGSGIKTSIDELAASCLKFDKSESPRLVHRLDRDCSGLLVLARTQTAATVLHSIFREKTTGASAYGVKKNVKSLKRKYMALVIGCPPRQRGQISAPLRKVVVDDGKSERITVNDNGELVSTQHAITEYRVIESSPHGYTWLELRPLTGRKHQLRVHCAEVLGTPIVGDYKYGWQAHKAREPFVSSENNPTKQSSSPFGLDLDGGDVSSKQPHLHLHSKQIDLPNISQLLEKMQVSSDSDISDLDSLKFDAPLPSHMQLSFNLLKSRVETCDKN”, for which the protein production result was “failed”.

“MAKYDVLTIGNAIVDIIARCDDSFLEENGIIKGAMNLINADRAELLYSRMGPAVEASGGSAGNTAAGVASLGGRAAYFGKVADDQLGEIFTHDIRAQGVHFQTKPLDGHPPTARSMIFVTEDGERSMNTYLGACVELGPEDVEDDVVAQSKVTYFEGYLWDPPRAKDAIREAARIAHAHGRETAMTLSDSFCVHRYRSEFLELMRSGTVDIVFANRQEALALYETEDFDRALELLARDCKLAAVTLSEEGSVVVRGAERVRVGASVLEQVVDTTGAGDLYAAGFLFGYTSGRSLEECSKLGNLAAGIVIGQIGPRPLVSLATAARQAALV”: the protein production entry was “not failed”.

Turning to “MAKYETPPPVRPLEKLITDFSYTNGLDPVNVFNDFLTYIIHGFSPGAPPLQNWKYKRLQNMKFMEMLTGWVQLMASRIKDDTSWYDPFGDLYMALVSKSAQQSQGQFFTPVHICDLMVLCTQTEEKMTGQRMGDPTCGSGRLLLAYHARNPENYLIGEDINRTCCLMTVCNMLIHGCVGEVICHDSLNPGNFVDGWKVNPMLTWTGIPTIKRMNMKEYRAGRNLPASPYIIRKTMLAGSRKHKTDSLLPLQAVFKMLEHHHHHH”, the protein production result is on record as “not failed”.
